# Data from paper PMC8490722 (Frontiers in Immunology, 2021).
# B1: mAb 12C10 (antibody, V domains shown)
# VH: EVKLQESGGGLVKPGGSLKLSCAASGFTFSNYSMSWVRQTPEKRLEWVATISNGGGYIYYLDSVKGRFTISRDNAKNTLYLQMSSLRSEDTAMYYCGRPRPEKEFISTSTAMDHWGQGTTVT
# VL: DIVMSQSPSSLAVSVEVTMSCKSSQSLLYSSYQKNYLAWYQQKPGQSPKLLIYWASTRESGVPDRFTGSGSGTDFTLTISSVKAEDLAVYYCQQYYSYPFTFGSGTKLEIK
# notes: also called anti-R405; source: mouse hybridoma; supernatants or ascites fluid
# Target: T1, SARS-CoV S1 subunit (SARS-CoV WH20 (AAX16192.1), UniProt Q5DIC5)
# T1 construct: source: bought: Sino Biological
# Test: western blotting
# Conditions: one partner purified
binder,measurement,value
B1,binding result,binds
